Test results from paper PMC7320910 (Nature microbiology, 2020).
Values joined by “and” are separate entries in the source; they are usually repeats but may differ in a detail not shown here. Equal values may be shown once.

Target: the molecule itself
Assay: cryo-EM structure

B1: FliF (flagellar MS-ring protein) from Salmonella enterica serovar Typhimurium (natural protein)
chain: MSATASTATQPKPLEWLNRLRANPRIPLIVAGSAAVAIVVAMVLWAKTPDYRTLFSNLSDQDGGAIVAQLTQMNIPYRFANGSGAIEVPADKVHELRLRLAQQGLPKGGAVGFELLDQEKFGISQFSEQVNYQRALEGELARTIETLGPVKSARVHLAMPKPSLFVREQKSPSASVTVTLEPGRALDEGQISAVVHLVSSAVAGLPPGNVTLVDQSGHLLTQSNTSGRDLNDAQLKFANDVESRIQRRIEAILSPIVGNGNVHAQVTAQLDFANKEQTEEHYSPNGDASKATLRSRQLNISEQVGAGYPGGVPGALSNQPAPPNEAPIATPPTNQQNAQNTPQTSTSTNSNSAGPRSTQRNETSNYEVDRTIRHTKMNVGDIERLSVAVVVNYKTLADGKPLPLTADQMKQIEDLTREAMGFSDKRGDTLNVVNSPFSAVDNTGGELPFWQQQSFIDQLLAAGRWLLVLVVAWILWRKAVRPQLTRRVEEAKAAQEQAQVRQETEEAVEVRLSKDEQLQQRRANQRLGAEVMSQRIREMSDNDPRVVALVIRQWMSNDHE
  stoichiometry N: 33 and 34 and 32 and 35
